This is an account of results in US20160215299, “EXPRESSION METHOD OF ACTIVE GOLDFISH TGF2 TRANSPOSON RECOMBINANT TRANSPOSASE PROTEIN” (Shanghai Ocean University, published 2016).

For data set [1], the system named is T1, gfTP1 transposase (Tgf2 transposase, 686 aa, recombinant 720 aa) (Carassius auratus).
T1 sequence: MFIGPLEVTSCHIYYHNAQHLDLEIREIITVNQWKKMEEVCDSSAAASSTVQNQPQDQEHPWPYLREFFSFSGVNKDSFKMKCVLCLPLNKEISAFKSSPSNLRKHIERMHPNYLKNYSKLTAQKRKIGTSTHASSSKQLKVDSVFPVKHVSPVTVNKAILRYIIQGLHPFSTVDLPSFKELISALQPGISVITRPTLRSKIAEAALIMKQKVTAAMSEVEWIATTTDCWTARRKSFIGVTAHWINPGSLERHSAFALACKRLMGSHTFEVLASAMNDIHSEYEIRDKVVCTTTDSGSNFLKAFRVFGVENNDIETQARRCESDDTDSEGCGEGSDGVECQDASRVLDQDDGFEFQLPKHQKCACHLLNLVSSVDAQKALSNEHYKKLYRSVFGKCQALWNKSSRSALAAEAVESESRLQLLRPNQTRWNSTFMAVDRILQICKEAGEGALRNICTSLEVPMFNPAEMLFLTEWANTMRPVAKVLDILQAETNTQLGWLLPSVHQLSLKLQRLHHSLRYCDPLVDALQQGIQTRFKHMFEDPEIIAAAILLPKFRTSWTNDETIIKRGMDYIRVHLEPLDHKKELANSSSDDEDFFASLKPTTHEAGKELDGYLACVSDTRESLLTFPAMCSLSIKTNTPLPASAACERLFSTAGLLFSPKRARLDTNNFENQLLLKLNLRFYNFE
Nature of the data set: cell_activity. As to conditions: genomic integration rate in one-year-old blunt snout bream (35/77) vs 10% with donor plasmid only; 8-bp direct repeats at insertion sites.

For data set [2], the target named is T2, gfTP1 transposase (Tgf2 transposase, 686 aa, recombinant 720 aa) (Carassius auratus).
T2 chain: T1 sequence
Briefly: EMSA; 25 C, 0.5-1 h; 1x protein shifts probe, 10x gives slower complex (oligomer); control cold probe no signal. As to conditions: tags: N-terminal 34 aa His6-containing tag from pET-28a, E. coli Rosetta 1(DE3); label: biotin. As to the method:
The 50 by sequences of left and right ends of goldfish Tgf2 transposon labeled by biotin were used as probes. The DNA binding activity was verified by EMSA, using non-denaturing polyacrylamide gel electrophoresis at 80 V for 1.0 h. Lane 1: biotin-labeled probes based on left (or right) end; Lane 2: the supernatant of cells without IPTG induction; Lane 3: co-incubation complex of biotin-labeled cold probes for control and the purified recombinant goldfish gfTP1 transposase; Lane 4: co-incubation complex of biotin-labeled probes based on Tgf2 left (or right) end and the purified 1× recombinant goldfish gfTP1 transposase; Lane 5: co-incubation complex of biotin-labeled probes based on Tgf2 left (or right) end and the purified 10× recombinant goldfish gfTP1 transposase.
For orientation: A gel shift assay detects complexes by their altered migration in electrophoresis.

For the molecule donor plasmid pTgf2-zfβ-actin-eGFP, the activity in data set [1] was 45%.

B1: Tgf2 right end 50 bp probe (dsDNA)
DNA 1: CAGAGGTGTAAAAGTACTAAAAATATTTACTAAAGTGAAAGTACAAGTAT
DNA 2: ATACTTGTACTTTCACTTTAGTAAATATTTTTAGTACTTTTACACCTCTG
B1: in data set [2], the binding result is given as “binds”.

B2: Tgf2 left end 50 bp probe (dsDNA)
DNA 1: CAGAGGTGTAAAAGTACTTAAGTAATTTTACTTGATTACTGTACTTAAGT
DNA 2: ACTTAAGTACAGTAATCAAGTAAAATTACTTAAGTACTTTTACACCTCTG
B2: the binding result in data set [2] is “binds”.
